These results are taken from patent publication US5811533, “High-affinity oligonucleotide ligands to vascular endothelial growth factor (VEGF)” (NeXstar Pharmaceuticals, Inc.).

For series [1], the target named is T1, VEGF165 (recombinant human vascular endothelial growth factor, 165 aa form) (Homo sapiens, UniProt P15692-4 P15692-4:27-191). As to the kind of experiment: filter; PBS, 0.01% HSA, 37 C; Kd1, X1 0.19, Kd2 10 nM. As to conditions: tags: gift from N. Ferrara, Genentech; chain copies: 2 (dimer, stated); label: 32P. As to the method:
(§1) Internally-labeled RNA ligands used for binding studies were prepared by in vitro transcription using T7 RNA polymerase (Milligan et al. (1987) Nucl. Acids Res. 15:8783) and were purified on denaturing polyacrylamide gels to ensure size homogeneity. All RNA ligands were diluted to about 1 nM in PBS, denatured at 90° C. for 2 minutes, and then cooled on ice prior to incubation with the protein. This denaturation/renaturation cycle performed at high dilution is necessary to ensure that the RNA is essentially free from dimers and other higher order aggregates. Concentrations of the stock solutions of VEGF, from which other dilutions were made, were determined from the absorbance reading at 280 nm using the calculated value for ε280 of 46,600 M^-1cm^-1 for the VEGF dimer (Gill et al. (1989) Anal. Biochem. 182:319). Data sets that define the binding curves were fit to either eq. 2 or eq. 5 by the non-linear least squares method using the software package Kaleidagraph (Synergy Software, Reading, Pa.). […]

Series [2] concerns the target T1, VEGF165 (recombinant human vascular …). As to the kind of experiment: filter; monophasic. As to conditions: tags: gift from N. Ferrara, Genentech; chain copies: 2 (dimer, stated).
The target is the same in series [3]. Briefly: filter; PBS, 0.01% HSA, 37 C; Kd1, X1 0.70, Kd2 38 nM. As to conditions: tags: gift from N. Ferrara, Genentech; chain copies: 2 (dimer, stated); label: 32P. As to the method:
as §1

The target is the same in series [4]. Briefly: filter; PBS, 0.01% HSA, 37 C; Kd1, X1 0.40, Kd2 11 nM. To be noted: tags: gift from N. Ferrara, Genentech; chain copies: 2 (dimer, stated); label: 32P. As to the method:
as §1

Series [5] shares this target. As to the kind of experiment: filter. As to conditions: tags: gift from N. Ferrara, Genentech; chain copies: 2 (dimer, stated).
Series [6] shares this target. Briefly: inhibition; VEGF receptor binding. To be noted: tags: gift from N. Ferrara, Genentech; chain copies: 2 (dimer, stated).
Series [7] has the same target. Briefly: filter; PBS, 0.01% HSA, 37 C; Kd1, X1 0.53, Kd2 31 nM. As to conditions: tags: gift from N. Ferrara, Genentech; chain copies: 2 (dimer, stated); label: 32P; asymmetrical internal loop. As to the method: as §1
Series [8] shares this target. Briefly: inhibition; VEGF receptor binding; single value printed in Ki column. As to conditions: tags: gift from N. Ferrara, Genentech; chain copies: 2 (dimer, stated).
For series [9] the target is unchanged. Briefly: filter; PBS, 0.01% HSA, 37 C; monophasic. As to conditions: tags: gift from N. Ferrara, Genentech; chain copies: 2 (dimer, stated); label: 32P; bulged hairpin. As to the method:
as §1

Series [10] has the same target. Briefly: filter; Kd1, X1 0.54, Kd2 9 nM. To be noted: tags: gift from N. Ferrara, Genentech; chain copies: 2 (dimer, stated).
For series [11] the target is unchanged. Briefly: filter; PBS, 0.01% HSA, 37 C; Kd1, X1 0.82, Kd2 42 nM. As to conditions: tags: gift from N. Ferrara, Genentech; chain copies: 2 (dimer, stated); label: 32P. As to the method: as §1

T1 sequence (P15692 other isoform, or with tags, fused parts or gaps): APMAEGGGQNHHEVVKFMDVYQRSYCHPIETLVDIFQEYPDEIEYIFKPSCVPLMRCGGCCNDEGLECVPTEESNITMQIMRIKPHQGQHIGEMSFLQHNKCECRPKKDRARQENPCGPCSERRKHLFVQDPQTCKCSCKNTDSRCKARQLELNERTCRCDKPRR

B1: ligand 40 (ssRNA)
RNA: GGGAGCUCAGAAUAAACGCUCAAGACCCAUCGUCAACGGUUGAGUCUGUCCCGUUCGACAUGAGGCCCGGAUCCGGC
Turning to B1, the Kd in series [1] was 0.19 nM.

B2: 23A (ssRNA)
RNA: GGGAGACAAGAAUAACGCUCAAGAGGCUGAUGGCAGACGCGGCCGAAGACAUUCGACAGGAGGCUCACAACAGGC
modifications: 2'-NH2 pyrimidines
On to B2, for which, in [2], the Kd came out at 2.8 nM.

B3: ligand 44 (ssRNA)
RNA: GGGAGCUCAGAAUAAACGCUCAAGCUUGAUGGGUGACACACGUCAUGCCGAGCUUCGACAUGAGGCCCGGAUCCGGC
On to B3, for which the Kd in [3] was determined as 1.7 nM.

B4: ligand 126 (ssRNA)
RNA: GGGAGCUCAGAAUAAACGCUCAAACGGUUCUGUGUGUGGACUAGCCGCGGCCGUUCGACAUGAGGCCCGGAUCCGGC
B4: the Kd in [4] came to 0.14 nM.
On to CCCGTCTTCCAGACAAGAGTGCAGGG (ssDNA) [33t], for which the Kd in series [5] came to 0.7 nM. For the same molecule, the Ki in series [6] came to 3 nM.
Turning to GGCUCAAUAGUUGGAGGCCUGUCCUCGCCGUAGAGC (ssRNA) [ligand 84t], in [7], the Kd came to 1.8 nM.
In the case of ACCCUGAUGGUAGACGCCGGGGUG (ssRNA, 2'-NH2 pyrimidines) [NX-107], the Ki in [8] stood at 1 nM.
Regarding GGUCAACGGUUGAGUCUGUCCCGUUCGAC (ssRNA) [ligand 40t], the Kd in series [9] was found to be 20 nM.

B5: 44B (ssRNA)
RNA: GGGAGGACGAUGCGGAACCGAGUCGUGUGGGUUGGGGCUCCAGUACAUCCCCGGUCUGGGUGUCAGACGACUCGCCCGA
modifications: 2'-NH2 pyrimidines
Take B5: the Kd in series [10] was 0.14 nM.

B6: ligand 100 (ssRNA)
RNA: GGGAGCUCAGAAUAAACGCUCAACCGGUAGUCGCAUGGCCCAUCGCGCCCGGUUCGACAUGAGGCCCGGAUCCGGC
Turning to B6, the Kd in series [11] was found to be 0.2 nM.
